Results: US20240321457A1 (University of California, published 2024)

Tests used:
AKT3 E17K mutant = AKT3 E17K mutant (human, UniProt Q9Y243 1-479); assay: AP-MS, 3xFLAG bait, breast cell lines
UBE2N [1] = biological target: T1, UBE2N (human, UniProt P61088 1-152); assay: AP-MS, PPI score from compPASS and SAINTexpress, MDA-MB-231 cells
T1 construct: endogenous prey from cell lysate; also called UBC13
T1 sequence (looked up): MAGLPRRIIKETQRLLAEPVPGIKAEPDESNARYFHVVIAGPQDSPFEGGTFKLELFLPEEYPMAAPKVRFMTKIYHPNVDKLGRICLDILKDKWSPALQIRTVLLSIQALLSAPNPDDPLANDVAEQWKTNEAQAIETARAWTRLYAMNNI

UBE2N [2] = biological target: T1, UBE2N; assay: quantitative AP-MS, prey abundance normalised to bait, MDA-MB-231 cells
BRCA1 S1655F [3] = biological target: T2, BRCA1 S1655F (human, UniProt P38398 1-1863); assay: AP-MS, 3xFLAG bait, MDA-MB-231 cells
T2 construct: 3xFLAG-tagged bait; also called BRCT domain mutant S1655F; 51655F

BRCA1 5382insC [4] = biological target: T3, BRCA1 5382insC (human, UniProt P38398 1-1755, limits assumed); assay: AP-MS, 3xFLAG bait, MDA-MB-231 cells
T3 construct: 3xFLAG-tagged bait; also called 5832insC

BRCA1 M1775R [5] = biological target: T4, BRCA1 M1775R (human, UniProt P38398 1-1863); assay: AP-MS, 3xFLAG bait, MDA-MB-231 cells
T4 construct: 3xFLAG-tagged bait; also called BRCT domain mutant M1775R

BRCA1 S1655F [6] = biological target: T2, BRCA1 S1655F; assay: AP-MS, MSstats WT vs mutant, MDA-MB-231 cells
BRCA1 5382insC [7] = biological target: T3, BRCA1 5382insC; assay: AP-MS, MSstats WT vs mutant, MDA-MB-231 cells
BRCA1 M1775R [8] = biological target: T4, BRCA1 M1775R; assay: AP-MS, MSstats WT vs mutant, MDA-MB-231 cells
AKT1 E17K mutant = AKT1 E17K mutant (human, UniProt P31749 1-480); assay: AP-MS, 3xFLAG bait, breast cell lines
Sequence of AKT1 E17K mutant (P31749 whole entry E17K): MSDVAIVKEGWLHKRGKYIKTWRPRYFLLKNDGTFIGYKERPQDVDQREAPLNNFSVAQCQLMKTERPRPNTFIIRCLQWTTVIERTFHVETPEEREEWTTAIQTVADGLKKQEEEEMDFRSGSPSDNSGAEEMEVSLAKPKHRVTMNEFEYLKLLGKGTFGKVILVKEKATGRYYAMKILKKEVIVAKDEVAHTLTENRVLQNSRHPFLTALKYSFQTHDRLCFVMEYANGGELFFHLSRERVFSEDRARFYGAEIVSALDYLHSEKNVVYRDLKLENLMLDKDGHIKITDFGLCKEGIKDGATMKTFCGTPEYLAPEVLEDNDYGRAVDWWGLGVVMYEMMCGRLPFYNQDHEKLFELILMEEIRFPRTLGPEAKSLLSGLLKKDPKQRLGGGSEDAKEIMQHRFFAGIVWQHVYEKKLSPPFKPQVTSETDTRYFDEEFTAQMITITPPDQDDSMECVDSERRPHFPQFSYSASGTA

Sequence of AKT3 E17K mutant (Q9Y243 whole entry E17K): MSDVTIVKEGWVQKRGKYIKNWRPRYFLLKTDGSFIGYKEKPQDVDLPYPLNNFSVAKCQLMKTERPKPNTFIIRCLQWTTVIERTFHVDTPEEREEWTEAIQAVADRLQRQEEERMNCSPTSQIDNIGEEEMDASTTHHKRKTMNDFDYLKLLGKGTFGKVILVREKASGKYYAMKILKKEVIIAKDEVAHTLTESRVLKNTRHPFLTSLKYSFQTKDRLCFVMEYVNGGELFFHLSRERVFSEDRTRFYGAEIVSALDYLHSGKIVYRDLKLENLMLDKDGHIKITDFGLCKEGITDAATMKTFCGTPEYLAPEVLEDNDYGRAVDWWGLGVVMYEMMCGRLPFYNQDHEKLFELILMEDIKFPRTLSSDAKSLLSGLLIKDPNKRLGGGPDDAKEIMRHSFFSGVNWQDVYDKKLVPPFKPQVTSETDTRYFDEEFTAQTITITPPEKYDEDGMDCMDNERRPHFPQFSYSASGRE

B1: S100 Calcium Binding Protein A3 (other, human, UniProt P33764 2-101, looked up)
chain: ARPLEQAVAAIVCTFQEYAGRCGDKYKLCQAELKELLQKELATWTPTEFRECDYNKFMSVLDTNKDCEVDFVEYVRSLACLCLYCHEYFKDCPSEPPCSQ
notes: endogenous prey from cell lysate; also called S100A3
Q: Does B1 bind (AKT3 E17K mutant)?
A: Result: no binding

B2: keratin KRT32 (other, human, UniProt Q14532 1-448, looked up)
chain: MTSSCCVTNNLQASLKSCPRPASVCSSGVNCRPELCLGYVCQPMACLPSVCLPTTFRPASCLSKTYLSSSCQAASGISGSMGPGSWYSEGAFNGNEKETMQFLNDRLASYLTRVRQLEQENAELESRIQEASHSQVLTMTPDYQSHFRTIEELQQKILCTKAENARMVVNIDNAKLAADDFRAKYEAELAMRQLVEADINGLRRILDDLTLCKADLEAQVESLKEELMCLKKNHEEEVGSLRCQLGDRLNIEVDAAPPVDLTRVLEEMRCQYEAMVEANRRDVEEWFNMQMEELNQQVATSSEQLQNYQSDIIDLRRTVNTLEIELQAQHSLRDSLENTLTESEARYSSQLAQMQCMITNVEAQLAEIRADLERQNQEYQVLLDVRARLEGEINTYRSLLENEDCKLPCNPCSTPSCTTCVPSPCVPRTVCVPRTVGMPCSPCPQGRY
notes: endogenous prey from cell lysate
Q: Does B2 bind (AKT3 E17K mutant)?
A: Result: no binding

B3: BRCA1 I26A (enzyme, human, UniProt P38398 1-1863, looked up)
chain: MDLSALRVEEVQNVINAMQKILECPACLELIKEPVSTKCDHIFCKFCMLKLLNQKKGPSQCPLCKNDITKRSLQESTRFSQLVEELLKIICAFQLDTGLEYANSYNFAKKENNSPEHLKDEVSIIQSMGYRNRAKRLLQSEPENPSLQETSLSVQLSNLGTVRTLRTKQRIQPQKTSVYIELGSDSSEDTVNKATYCSVGDQELLQITPQGTRDEISLDSAKKAACEFSETDVTNTEHHQPSNNDLNTTEKRAAERHPEKYQGSSVSNLHVEPCGTNTHASSLQHENSSLLLTKDRMNVEKAEFCNKSKQPGLARSQHNRWAGSKETCNDRRTPSTEKKVDLNADPLCERKEWNKQKLPCSENPRDTEDVPWITLNSSIQKVNEWFSRSDELLGSDDSHDGESESNAKVADVLDVLNEVDEYSGSSEKIDLLASDPHEALICKSERVHSKSVESNIEDKIFGKTYRKKASLPNLSHVTENLIIGAFVTEPQIIQERPLTNKLKRKRRPTSGLHPEDFIKKADLAVQKTPEMINQGTNQTEQNGQVMNITNSGHENKTKGDSIQNEKNPNPIESLEKESAFKTKAEPISSSISNMELELNIHNSKAPKKNRLRRKSSTRHIHALELVVSRNLSPPNCTELQIDSCSSSEEIKKKKYNQMPVRHSRNLQLMEGKEPATGAKKSNKPNEQTSKRHDSDTFPELKLTNAPGSFTKCSNTSELKEFVNPSLPREEKEEKLETVKVSNNAEDPKDLMLSGERVLQTERSVESSSISLVPGTDYGTQESISLLEVSTLGKAKTEPNKCVSQCAAFENPKGLIHGCSKDNRNDTEGFKYPLGHEVNHSRETSIEMEESELDAQYLQNTFKVSKRQSFAPFSNPGNAEEECATFSAHSGSLKKQSPKVTFECEQKEENQGKNESNIKPVQTVNITAGFPVVGQKDKPVDNAKCSIKGGSRFCLSSQFRGNETGLITPNKHGLLQNPYRIPPLFPIKSFVKTKCKKNLLEENFEEHSMSPEREMGNENIPSTVSTISRNNIRENVFKEASSSNINEVGSSTNEVGSSINEIGSSDENIQAELGRNRGPKLNAMLRLGVLQPEVYKQSLPGSNCKHPEIKKQEYEEVVQTVNTDFSPYLISDNLEQPMGSSHASQVCSETPDDLLDDGEIKEDTSFAENDIKESSAVFSKSVQKGELSRSPSPFTHTHLAQGYRRGAKKLESSEENLSSEDEELPCFQHLLFGKVNNIPSQSTRHSTVATECLSKNTEENLLSLKNSLNDCSNQVILAKASQEHHLSEETKCSASLFSSQCSELEDLTANTNTQDPFLIGSSKQMRHQSESQGVGLSDKELVSDDEERGTGLEENNQEEQSMDSNLGEAASGCESETSVSEDCSGLSSQSDILTTQQRDTMQHNLIKLQQEMAELEAVLEQHGSQPSNSYPSIISDSSALEDLRNPEQSTSEKAVLTSQKSSEYPISQNPEGLSADKFEVSADSSTSKNKEPGVERSSPSKCPSLDDRWYMHSCSGSLQNRNYPSQEELIKVVDVEEQQLEESGPHDLTETSYLPRQDLEGTPYLESGISLFSDDPESDPSEDRAPESARVGNIPSSTSALKVPQLKVAESAQSPAAAHTTDTAGYNAMEESVSREKPELTASTERVNKRMSMVVSGLTPEEFMLVYKFARKHHITLTNLITEETTHVVMKTDAEFVCERTLKYFLGIAGGKWVVSYFWVTQSIKERKMLNEHDFEVRGDVVNGRNHQGPKRARESQDRKIFRGLEICCYGPFTNMPTDQLEWMVQLCGASVVKELSSFTLGTGVHPIVVVQPDAWTEDNGFHAIGQMCEAPVVTREWVLDSVALYQCQELDTYLIPQIPHSHY
notes: 3xFLAG-tagged bait; printed I16A in the embodiments; also called RING domain mutant I26A
Q: Which results are given for B3?
A: PPI score (UBE2N [1]): < 0.6; fold reduction of associated prey compared to WT (UBE2N [2]): 6 fold

B4: UIMC1 (other, human, UniProt Q96RL1 1-719, looked up)
chain: MPRRKKKVKEVSESRNLEKKDVETTSSVSVKRKRRLEDAFIVISDSDGEEPKEENGLQKTKTKQSNRAKCLAKRKIAQMTEEEQFALALKMSEQEAREVNSQEEEEEELLRKAIAESLNSCRPSDASATRSRPLATGPSSQSHQEKTTDSGLTEGIWQLVPPSLFKGSHISQGNEAEEREEPWDHTEKTEEEPVSGSSGSWDQSSQPVFENVNVKSFDRCTGHSAEHTQCGKPQESTGRGSAFLKAVQGSGDTSRHCLPTLADAKGLQDTGGTVNYFWGIPFCPDGVDPNQYTKVILCQLEVYQKSLKMAQRQLLNKKGFGEPVLPRPPSLIQNECGQGEQASEKNECISEDMGDEDKEERQESRASDWHSKTKDFQESSIKSLKEKLLLEEEPTTSHGQSSQGIVEETSEEGNSVPASQSVAALTSKRSLVLMPESSAEEITVCPETQLSSSETFDLEREVSPGSRDILDGVRIIMADKEVGNKEDAEKEVAISTFSSSNQVSCPLCDQCFPPTKIERHAMYCNGLMEEDTVLTRRQKEAKTKSDSGTAAQTSLDIDKNEKCYLCKSLVPFREYQCHVDSCLQLAKADQGDGPEGSGRACSTVEGKWQQRLKNPKEKGHSEGRLLSFLEQSEHKTSDADIKSSETGAFRVPSPGMEEAGCSREMQSSFTRRDLNESPVKSFVSISEATDCLVDFKKQVTVQPGSRTRTKAGRGRRRKF
notes: as for B2
Q: Does B4 bind (BRCA1 S1655F [3])?
A: Result: no binding

Q: Does B4 bind (BRCA1 5382insC [4])?
A: Result: no binding

Q: Does B4 bind (BRCA1 M1775R [5])?
A: Result: no binding

B5: RBBP8 (other, human, UniProt Q99708 1-897, looked up)
chain: MNISGSSCGSPNSADTSSDFKDLWTKLKECHDREVQGLQVKVTKLKQERILDAQRLEEFFTKNQQLREQQKVLHETIKVLEDRLRAGLCDRCAVTEEHMRKKQQEFENIRQQNLKLITELMNERNTLQEENKKLSEQLQQKIENDQQHQAAELECEEDVIPDSPITAFSFSGVNRLRRKENPHVRYIEQTHTKLEHSVCANEMRKVSKSSTHPQHNPNENEILVADTYDQSQSPMAKAHGTSSYTPDKSSFNLATVVAETLGLGVQEESETQGPMSPLGDELYHCLEGNHKKQPFEESTRNTEDSLRFSDSTSKTPPQEELPTRVSSPVFGATSSIKSGLDLNTSLSPSLLQPGKKKHLKTLPFSNTCISRLEKTRSKSEDSALFTHHSLGSEVNKIIIQSSNKQILINKNISESLGEQNRTEYGKDSNTDKHLEPLKSLGGRTSKRKKTEEESEHEVSCPQASFDKENAFPFPMDNQFSMNGDCVMDKPLDLSDRFSAIQRQEKSQGSETSKNKFRQVTLYEALKTIPKGFSSSRKASDGNCTLPKDSPGEPCSQECIILQPLNKCSPDNKPSLQIKEENAVFKIPLRPRESLETENVLDDIKSAGSHEPIKIQTRSDHGGCELASVLQLNPCRTGKIKSLQNNQDVSFENIQWSIDPGADLSQYKMDVTVIDTKDGSQSKLGGETVDMDCTLVSETVLLKMKKQEQKGEKSSNEERKMNDSLEDMFDRTTHEEYESCLADSFSQAADEEEELSTATKKLHTHGDKQDKVKQKAFVEPYFKGDERETSLQNFPHIEVVRKKEERRKLLGHTCKECEIYYADMPAEEREKKLASCSRHRFRYIPPNTPENFWEVGFPSTQTCMERGYIKEDLDPCPRPKRRQPYNAIFSPKGKEQKT
notes: as for B2
Q: Does B5 bind (BRCA1 S1655F [6])?
A: Result: no binding

Q: Does B5 bind (BRCA1 5382insC [7])?
A: Result: no binding

Q: Does B5 bind (BRCA1 M1775R [8])?
A: Result: no binding

B6: CSTB (other, human, UniProt P04080 1-98, looked up)
chain: MMCGAPSATQPATAETQHIADQVRSQLEEKENKKFPVFKAVSFKSQVVAGTNYFIKVHVGDEDFVHLRVFQSLPHENKPLTLSNYQTNKAKHDELTYF
notes: as for B2
Q: Does B6 bind (AKT1 E17K mutant)?
A: Result: no binding

B7: SPRR3 (other, human, UniProt Q9UBC9 2-169, looked up)
chain: SSYQQKQTFTPPPQLQQQQVKQPSQPPPQEIFVPTTKEPCHSKVPQPGNTKIPEPGCTKVPEPGCTKVPEPGCTKVPEPGCTKVPEPGCTKVPEPGCTKVPEPGYTKVPEPGSIKVPDQGFIKFPEPGAIKVPEQGYTKVPVPGYTKLPEPCPSTVTPGPAQQKTKQK
notes: as for B2
Q: Does B7 bind (AKT1 E17K mutant)?
A: Result: no binding
